Target: the molecule itself
Experiment: SEC; Superdex 200 10/30; running buffer 25 mM Tris-HCl pH 8.0, 100 mM NaCl, 10% glycerol; 600 ug of HSP90.5 62-780 or 200 ug of FLAG-tagged HSP90.5 62-780 loaded; fractions analysed by SDS-PAGE

Protein | stoichiometry N
C-terminally FLAG-tagged mature HSP90.5 (HSP90.5 62-780 FLAG), N-terminally His6-tagged (domain or fragment, Arabidopsis thaliana, UniProt Q9SIF2 62-780, looked up, Arabidopsis thaliana chloroplast HSP90.5, predicted mature form, residues 62-780, amplified from pGWB402Ω-HSP90.5FLAG and cloned into pProEXHTb; also called HSP90.5FLAG; FLAG-tagged HSP90.5; source: E. coli, purified (Ni-NTA); not shown: FLAG, C-terminal, kept) DAAVAEKETTEEGSGEKFEYQAEVSRLLDLIVHSLYSHKEVFLRELVSNASDALDKLRFLSVTEPSLLGDGGDLEIRIKPDPDNGTITITDTGIGMTKEELIDCLGTIAQSGTSKFLKALKENKDLGADNGLIGQFGVGFYSAFLVAEKVVVSTKSPKSDKQYVWESVADSSSYLIREETDPDNILRRGTQITLYLREDDKYEFAESTRIKNLVKNYSQFVGFPIYTWQEKSRTIEVEEDEPVKEGEEGEPKKKKTTKTEKYWDWELANETKPLWMRNSKEVEKGEYNEFYKKAFNEFLDPLAHTHFTTEGEVEFRSILYIPGMGPLNNEDVTNPKTKNIRLYVKRVFISDDFDGELFPRYLSFVKGVVDSDDLPLNVSREILQESRIVRIMRKRLIRKTFDMIQEISESENKEDYKKFWENFGRFLKLGCIEDTGNHKRITPLLRFFSSKNEEELTSLDDYIENMGENQKAIYYLATDSLKSAKSAPFLEKLIQKDIEVLYLVEPIDEVAIQNLQTYKEKKFVDISKEDLELGDEDEVKDREAKQEFNLLCDWIKQQLGDKVAKVQVSNRLSSSPCVLVSGKFGWSANMERLMKAQALGDTSSLEFMRGRRILEINPDHPIIKDLNAACKNAPESTEATRVVDLLYDTAIISSGFTPDSPAELGNKIYEMMAMAVGGRWGRVEEEEESSTVNEGDDKSGETEVVEPSEVRAESDPWQD | 2
mature HSP90.5 (HSP90.5 62-780), N-terminally His6-tagged (domain or fragment, Arabidopsis thaliana, UniProt Q9SIF2 62-780, looked up, Arabidopsis thaliana chloroplast HSP90.5, predicted mature form, residues D62-D780, cloned from an HSP90.5 cDNA into the p11 vector; also called wild type HSP90.5; AtHSP90.5; source: E. coli, purified (Ni-NTA)) DAAVAEKETTEEGSGEKFEYQAEVSRLLDLIVHSLYSHKEVFLRELVSNASDALDKLRFLSVTEPSLLGDGGDLEIRIKPDPDNGTITITDTGIGMTKEELIDCLGTIAQSGTSKFLKALKENKDLGADNGLIGQFGVGFYSAFLVAEKVVVSTKSPKSDKQYVWESVADSSSYLIREETDPDNILRRGTQITLYLREDDKYEFAESTRIKNLVKNYSQFVGFPIYTWQEKSRTIEVEEDEPVKEGEEGEPKKKKTTKTEKYWDWELANETKPLWMRNSKEVEKGEYNEFYKKAFNEFLDPLAHTHFTTEGEVEFRSILYIPGMGPLNNEDVTNPKTKNIRLYVKRVFISDDFDGELFPRYLSFVKGVVDSDDLPLNVSREILQESRIVRIMRKRLIRKTFDMIQEISESENKEDYKKFWENFGRFLKLGCIEDTGNHKRITPLLRFFSSKNEEELTSLDDYIENMGENQKAIYYLATDSLKSAKSAPFLEKLIQKDIEVLYLVEPIDEVAIQNLQTYKEKKFVDISKEDLELGDEDEVKDREAKQEFNLLCDWIKQQLGDKVAKVQVSNRLSSSPCVLVSGKFGWSANMERLMKAQALGDTSSLEFMRGRRILEINPDHPIIKDLNAACKNAPESTEATRVVDLLYDTAIISSGFTPDSPAELGNKIYEMMAMAVGGRWGRVEEEEESSTVNEGDDKSGETEVVEPSEVRAESDPWQD | 2
